In patent publication US20260234242A1 (HAINAN SIMCERE ZAIMING PHARMACEUTICAL, published 2026):

Legend:
[1] = molecular target: T1, human CDH6 with EC3 removed, on HEK293T cells (HEK293T-hCDH6-EC3 deletion) (human, UniProt P55285 54-790); assay: FACS, HEK293T-hCDH6-EC3 deletion cells
T1 construct: Signal peptide not removed here
T1 sequence: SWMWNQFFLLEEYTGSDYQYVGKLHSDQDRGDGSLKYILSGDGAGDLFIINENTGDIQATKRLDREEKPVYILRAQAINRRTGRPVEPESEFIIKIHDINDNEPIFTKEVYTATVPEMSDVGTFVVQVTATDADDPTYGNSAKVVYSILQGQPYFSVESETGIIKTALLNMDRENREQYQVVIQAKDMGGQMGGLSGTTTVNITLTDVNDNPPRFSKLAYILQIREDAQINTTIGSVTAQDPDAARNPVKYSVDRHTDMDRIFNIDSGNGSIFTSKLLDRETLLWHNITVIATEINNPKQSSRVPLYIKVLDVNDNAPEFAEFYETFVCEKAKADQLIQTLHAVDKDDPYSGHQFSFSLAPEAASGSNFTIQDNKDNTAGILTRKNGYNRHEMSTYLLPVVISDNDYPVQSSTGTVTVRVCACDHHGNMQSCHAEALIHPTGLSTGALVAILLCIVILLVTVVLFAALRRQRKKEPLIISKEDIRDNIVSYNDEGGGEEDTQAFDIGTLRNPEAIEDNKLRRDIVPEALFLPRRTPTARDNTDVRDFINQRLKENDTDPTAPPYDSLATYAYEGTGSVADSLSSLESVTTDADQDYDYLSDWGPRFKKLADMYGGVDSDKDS

[2] = molecular target: T2, his-tagged human CDH6 extracellular region protein (hCDH6 ECD-his) (human, UniProt P55285 19-615); assay: ELISA, coated antigen; ELISA, hCDH6 ECD-his coated at 1 µg/mL, antibody in solution; chimeric antibody run (Table 5)
T2 construct: also called Human CDH6-his; hCDH6-his; not shown: his tag
T2 sequence: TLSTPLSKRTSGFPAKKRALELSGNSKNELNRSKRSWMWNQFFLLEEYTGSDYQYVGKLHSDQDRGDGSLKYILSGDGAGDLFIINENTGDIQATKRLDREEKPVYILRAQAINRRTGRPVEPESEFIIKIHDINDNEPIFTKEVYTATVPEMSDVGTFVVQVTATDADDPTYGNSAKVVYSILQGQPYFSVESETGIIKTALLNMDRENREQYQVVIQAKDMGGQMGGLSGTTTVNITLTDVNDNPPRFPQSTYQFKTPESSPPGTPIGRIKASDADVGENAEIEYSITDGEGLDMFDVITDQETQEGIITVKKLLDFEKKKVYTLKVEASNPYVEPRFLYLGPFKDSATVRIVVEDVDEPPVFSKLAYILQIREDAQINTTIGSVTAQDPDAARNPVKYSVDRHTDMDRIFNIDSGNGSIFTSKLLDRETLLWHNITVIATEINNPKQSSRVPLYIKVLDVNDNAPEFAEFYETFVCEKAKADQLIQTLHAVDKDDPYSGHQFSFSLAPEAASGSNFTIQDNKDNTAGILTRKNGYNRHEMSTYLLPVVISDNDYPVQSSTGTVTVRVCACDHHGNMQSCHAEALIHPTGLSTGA
Method: Human CDH6 protein (hCDH6 ECD-his, conventionally synthesized), monkey CDH6 protein (cynoCDH6 ECD-his, conventionally synthesized; the cynoCDH6 ECD sequence was derived from Uniprot #A0A2K5TW62 (19-615)), and murine CDH6 protein (mCDH6 ECD-his, conventionally synthesized; the mCDH6 ECD sequence was derived from Uniprot #P97326 (19-615)) were diluted with PBS to a final concentration of 1 μg/mL, and added to a 96-well ELISA plate at 100 μL/well. The plate was incubated at 4° C. overnight. The next day, the plate was washed 3 times with a plate washing solution (PBS+0.01% (v/v) Tween 20), and a blocking buffer (PBS+0.01% (v/v) Tween 20+2% (w/w) BSA) was added for blocking at room temperature for 2 h. The blocking buffer was discarded, and the plate was washed 3 times. The chimeric antibodies were diluted with 1% BSA+PBS (purchased from Cytiva, Cat. No. SH30264.01) and added to the 96-well plate at 50 μL/well. After incubation at 37° C. for 2 h, the plate was washed 3 times with a plate washing solution. […] The plate was incubated at 37° C. for 1 h and then washed 5 times with a plate washing solution. […] OD450 nm values were read using a microplate reader (Biotek). Analysis was performed by the GraphPad Prism software, data were fitted, and EC50 values were calculated. […]

B1: CHI-CDH6-12 (antibody, human IgG1, kappa, V domains shown)
VH: EVNLVESGGGLVQPGDSLTLSCSASGFTFTDYYMSWVRQFPGKALEWLALIRNKANSYTTEYSASVKGRFTISRDNSQSILYLQMNALRAEDSATYYCARDSYYSHDGFAYWGQGTLVTVSA
VL: DIVLTQSPASLAVSLGQRATISCRASKSVSTSSYTYMHWYQQKPGQPPKLLIKFASYLESGVPARFSGSGSGTDFTLNIHPVEEEDAATYYCQHSREFPFTFGTGTKLEIKR
notes: also called CH1-CDH6-12; chimeric antibody of murine CDH6-12
B1: no binding [1].

B2: CHI-CDH6-14 (antibody, human IgG1, kappa, V domains shown)
VH: QIQLQQSGPELVKPGTSVKISCKASGYTFTDNYINWVRQRPGQGLEWIGWIYPGTGNSYYNEKFKGKATLTVDTSSSTAYMQFSSLTSEDSAVYLCASSYGDSFDYWGQGTTLTVSS
VL: DIQMTQTTSSLSASLGNRVTISCRASQDIRNYLNWYQQKPDGTFKLLISYTSRLHSGVPSRFSGSGSGTDYSLTVSNLEPEDIATYYCQQYSQLPWTFGGGSRLEIKR
notes: also called CHI-hCDH6-14; CH1-CDH6-14
For B2, the EC50 [2] was 0.044 nM.
